Reference: patent publication US20020155995A1 (published 2002)

Target: T1, human CD163, ligand-affinity purified from Triton X-100 solubilised human spleen, placenta and liver membranes (human, UniProt Q86VB7 42-1156)
T1 construct: mature; Natural receptor purified from tissue membranes on Hp-Hb Sepharose; immobilised on BIAcore CM5 chips or in microtiter wells; also called HbSR; Hp-Hb receptor
Assay: SPR, CD163 immobilised on CM5 chip
Procedure: Purified CD163 was immobilised at the BIAcore sensor CM5 chip (BIAcore AB) at a concentration of up to 50 μg/ml in 10 mM sodium acetate, pH 4.0, and the remaining binding sites were blocked with 1 M ethanolamine pH 8.5. The surface plasmon resonance signal generated from immobilised CD163 corresponded to 55-66 fmol receptor/mm². The sample and flow buffer was 10 mM Hepes, 150 mM NaCl, 0.5 mM CaCl₂, pH 7.4. The sensor chips were regenerated with 1.6 M glycine-HCl, pH 3.

T1 sequence (Q86VB7 42-1156): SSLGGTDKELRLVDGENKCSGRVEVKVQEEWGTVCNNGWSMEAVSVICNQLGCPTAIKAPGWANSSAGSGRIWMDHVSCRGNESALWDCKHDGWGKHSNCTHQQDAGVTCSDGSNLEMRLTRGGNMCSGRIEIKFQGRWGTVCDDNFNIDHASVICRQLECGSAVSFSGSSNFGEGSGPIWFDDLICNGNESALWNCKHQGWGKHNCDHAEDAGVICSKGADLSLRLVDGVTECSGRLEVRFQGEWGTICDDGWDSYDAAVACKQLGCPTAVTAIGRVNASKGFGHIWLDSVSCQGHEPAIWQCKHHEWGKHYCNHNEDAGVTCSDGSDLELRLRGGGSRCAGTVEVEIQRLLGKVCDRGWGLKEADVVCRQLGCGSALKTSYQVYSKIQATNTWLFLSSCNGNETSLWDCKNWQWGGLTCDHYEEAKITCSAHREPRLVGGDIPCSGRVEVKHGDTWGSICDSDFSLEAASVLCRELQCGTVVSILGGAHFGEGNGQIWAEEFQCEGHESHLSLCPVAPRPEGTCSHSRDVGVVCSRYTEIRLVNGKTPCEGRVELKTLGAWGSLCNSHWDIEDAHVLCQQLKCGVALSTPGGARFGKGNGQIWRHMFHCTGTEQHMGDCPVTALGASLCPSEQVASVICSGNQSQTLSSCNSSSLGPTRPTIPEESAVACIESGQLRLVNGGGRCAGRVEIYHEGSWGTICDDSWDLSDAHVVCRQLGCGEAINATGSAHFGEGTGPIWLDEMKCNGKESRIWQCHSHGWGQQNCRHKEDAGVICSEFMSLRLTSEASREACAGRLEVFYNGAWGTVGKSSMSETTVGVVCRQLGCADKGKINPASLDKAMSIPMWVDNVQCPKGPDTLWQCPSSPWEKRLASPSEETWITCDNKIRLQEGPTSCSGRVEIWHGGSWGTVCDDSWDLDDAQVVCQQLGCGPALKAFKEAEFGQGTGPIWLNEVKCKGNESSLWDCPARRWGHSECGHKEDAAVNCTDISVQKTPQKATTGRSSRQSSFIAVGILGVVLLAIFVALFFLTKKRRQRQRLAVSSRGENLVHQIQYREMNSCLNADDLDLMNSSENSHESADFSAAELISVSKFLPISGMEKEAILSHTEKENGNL

binding result: no binding (tested: 50 µg/ml Hp(2-2))
B1: human haptoglobin Hp(2-2), non-complexed (other, UniProt P00738 19-406, looked up)
chain: VDSGNDVTDIADDGCPKPPEIAHGYVEHSVRYQCKNYYKLRTEGDGVYTLNDKKQWINKAVGDKLPECEADDGCPKPPEIAHGYVEHSVRYQCKNYYKLRTEGDGVYTLNNEKQWINKAVGDKLPECEAVCGKPKNPANPVQRILGGHLDAKGSFPWQAKMVSHHNLTTGATLINEQWLLTTAKNLFLNHSENATAKDIAPTLTLYVGKKQLVEIEKVVLHPNYSQVDIGLIKLKQKVSVNERVMPICLPSKDYAEVGRVGYVSGWGRNANFKFTDHLKYVMLPVADQDQCIRHYEGSTVPEKKTPKSPVGVQPILNEHTFCAGMSKYQEDTCYGDAGSAFAVHDLEEDTWYATGILSFDKSCAVAEYGVYVKVTSIQDWVQKTIAEN
notes: mature; From Sigma; mixture of multimers; also called Hp(2-2) multimers
